Experimental data taken from IntAct's records for PubMed 28712572.

Molecular target: gbrap_human GABARAP (UniProt O95166)
Sequence (O95166 whole entry): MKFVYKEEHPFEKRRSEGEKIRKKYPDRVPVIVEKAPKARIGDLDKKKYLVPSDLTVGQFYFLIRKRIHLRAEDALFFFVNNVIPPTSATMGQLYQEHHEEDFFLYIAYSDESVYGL

Row | Substance | effect of a mutation on the interaction
1 | Pericentriolar material 1 protein (Homo sapiens), Q15154 Q1956G | with no effect
2 | Pericentriolar material 1 protein (Homo sapiens), Q15154 Q1956H | with no effect
3 | Pericentriolar material 1 protein (Homo sapiens), Q15154 Q1956I | with no effect
4 | Pericentriolar material 1 protein (Homo sapiens), Q15154 Q1956K | with no effect
5 | Pericentriolar material 1 protein (Homo sapiens), Q15154 Q1956L | with no effect
6 | Pericentriolar material 1 protein (Homo sapiens), Q15154 Q1956M | with no effect
7 | Pericentriolar material 1 protein (Homo sapiens), Q15154 Q1956N | with no effect
8 | Pericentriolar material 1 protein (Homo sapiens), Q15154 Q1956P | with no effect
9 | Pericentriolar material 1 protein (Homo sapiens), Q15154 Q1956R | with no effect
10 | Pericentriolar material 1 protein (Homo sapiens), Q15154 Q1956T | with no effect
11 | Pericentriolar material 1 protein (Homo sapiens), Q15154 Q1956V | with no effect
12 | Pericentriolar material 1 protein (Homo sapiens), Q15154 S1955C | with no effect
13 | Pericentriolar material 1 protein (Homo sapiens), Q15154 S1955D | with no effect
14 | Pericentriolar material 1 protein (Homo sapiens), Q15154 S1955E | with no effect
15 | Pericentriolar material 1 protein (Homo sapiens), Q15154 S1955I | with no effect
16 | Pericentriolar material 1 protein (Homo sapiens), Q15154 S1955K | with no effect
17 | Pericentriolar material 1 protein (Homo sapiens), Q15154 S1955L | with no effect
18 | Pericentriolar material 1 protein (Homo sapiens), Q15154 S1955M | with no effect
19 | Pericentriolar material 1 protein (Homo sapiens), Q15154 S1955N | with no effect

Row | Substance | effect of a mutation on the interaction
20 | Pericentriolar material 1 protein (Homo sapiens), Q15154 S1955Q | with no effect
21 | Pericentriolar material 1 protein (Homo sapiens), Q15154 S1955R | with no effect
22 | Pericentriolar material 1 protein (Homo sapiens), Q15154 S1958D | with no effect
23 | Pericentriolar material 1 protein (Homo sapiens), Q15154 S1958E | with no effect
24 | Pericentriolar material 1 protein (Homo sapiens), Q15154 S1958F | with no effect
25 | Pericentriolar material 1 protein (Homo sapiens), Q15154 S1958G | with no effect
26 | Pericentriolar material 1 protein (Homo sapiens), Q15154 S1958H | with no effect
27 | Pericentriolar material 1 protein (Homo sapiens), Q15154 S1958I | with no effect
28 | Pericentriolar material 1 protein (Homo sapiens), Q15154 S1958L | with no effect
29 | Pericentriolar material 1 protein (Homo sapiens), Q15154 S1958N | with no effect
30 | Pericentriolar material 1 protein (Homo sapiens), Q15154 S1958Q | with no effect
31 | Pericentriolar material 1 protein (Homo sapiens), Q15154 S1958R | with no effect
32 | Pericentriolar material 1 protein (Homo sapiens), Q15154 S1958T | with no effect
33 | Pericentriolar material 1 protein (Homo sapiens), Q15154 S1958Y | with no effect
34 | Pericentriolar material 1 protein (Homo sapiens), Q15154 T1974A | with no effect
35 | Pericentriolar material 1 protein (Homo sapiens), Q15154 T1974H | with no effect
36 | Pericentriolar material 1 protein (Homo sapiens), Q15154 T1974K | with no effect
37 | Pericentriolar material 1 protein (Homo sapiens), Q15154 T1974L | with no effect

Now from value to substance:

Row | effect of a mutation on the interaction | Substance
38 | with no effect | Pericentriolar material 1 protein (Homo sapiens), Q15154 Q1956D
39 | with no effect | Pericentriolar material 1 protein (Homo sapiens), Q15154 Q1956E
40 | with no effect | Pericentriolar material 1 protein (Homo sapiens), Q15154 Q1956F
41 | with no effect | Pericentriolar material 1 protein (Homo sapiens), Q15154 Q1956S
42 | with no effect | Pericentriolar material 1 protein (Homo sapiens), Q15154 Q1956W
43 | with no effect | Pericentriolar material 1 protein (Homo sapiens), Q15154 Q1956Y
44 | with no effect | Pericentriolar material 1 protein (Homo sapiens), Q15154 S1955A
45 | with no effect | Pericentriolar material 1 protein (Homo sapiens), Q15154 S1955F
46 | with no effect | Pericentriolar material 1 protein (Homo sapiens), Q15154 S1955G
47 | with no effect | Pericentriolar material 1 protein (Homo sapiens), Q15154 S1955H
48 | with no effect | Pericentriolar material 1 protein (Homo sapiens), Q15154 S1955P
49 | with no effect | Pericentriolar material 1 protein (Homo sapiens), Q15154 S1955T
50 | decreasing interaction strength | Pericentriolar material 1 protein (Homo sapiens), Q15154 S1955V
51 | with no effect | Pericentriolar material 1 protein (Homo sapiens), Q15154 S1955W
52 | with no effect | Pericentriolar material 1 protein (Homo sapiens), Q15154 S1955Y
53 | with no effect | Pericentriolar material 1 protein (Homo sapiens), Q15154 S1958A
54 | with no effect | Pericentriolar material 1 protein (Homo sapiens), Q15154 S1958C
55 | with no effect | Pericentriolar material 1 protein (Homo sapiens), Q15154 S1958K
56 | with no effect | Pericentriolar material 1 protein (Homo sapiens), Q15154 S1958M
57 | with no effect | Pericentriolar material 1 protein (Homo sapiens), Q15154 S1958P
58 | with no effect | Pericentriolar material 1 protein (Homo sapiens), Q15154 S1958V
59 | with no effect | Pericentriolar material 1 protein (Homo sapiens), Q15154 S1958W
60 | with no effect | Pericentriolar material 1 protein (Homo sapiens), Q15154 T1974C
61 | with no effect | Pericentriolar material 1 protein (Homo sapiens), Q15154 T1974D
62 | with no effect | Pericentriolar material 1 protein (Homo sapiens), Q15154 T1974E
63 | with no effect | Pericentriolar material 1 protein (Homo sapiens), Q15154 T1974F
64 | with no effect | Pericentriolar material 1 protein (Homo sapiens), Q15154 T1974G
65 | with no effect | Pericentriolar material 1 protein (Homo sapiens), Q15154 T1974I
